Test system: NF-kB (human)
Assay: cell_activity
Conditions: lipid transfection of 1 pmol

Sequence	activity (A549 MTT day 2 (89% day 1), with doxorubicin 79% day 1, 73% day 2) [% viability]	activity (5' monophosphate, A549 MTT day 2 (101% day 1), with doxorubicin 78% day 2) [% viability]
AAAAAAAAAAGAUCUUGAAACUGUUUUAAGGUUGGCCGAUCUUAAAAAA [NF-kB aptamer circular RNA]	86	–
AAAAAAAAAAGAUCUUGAAACUGUUUUAAGGUUGGCCGAUCUUAAAAAA [NF-kB aptamer linear RNA]	–	97
